Data as given in article PMC3249379.
Like-named read-outs stand apart in the source and are kept apart here.

Assays:
Test in all cases: AUC
[1] = target: GluA4 flip ectodomain, L484Y mutant (R. norvegicus)
[2] = target: GluA4 flip ectodomain, L484Y mutant (R. norvegicus); remark: listed apart in the source
[3] = target: GluA4 flip ectodomain, wild type (NTD and LBD in a tandem array) (R. norvegicus)

Row | Kd [1] [nM] | Kd [2] [nM] | stoichiometry N [2] | Kd [3] [nM] | stoichiometry N [3] | Substance
1 | 1500 | 1100 | 4 |  |  | GluA4 flip ectodomain, L484Y mutant (domain or fragment)
2 |  |  |  | 300 | 2 | GluA4 flip ectodomain, wild type (NTD and LBD in a tandem array) (domain or fragment)
